B1: TPR 5TU (parent)
chain: GGAUCUUCUCGAUCUAACAAAAAAGACAAAUCUGCCACAAAGCUUGAGAGCAUCUUCGGAUGCAGAGGCGGCAGCCUUCGGUGGCGCGAUAGCGCCAACGUUCUCAACUAUGACACGCAAAACGCGUGCUCCGUUGAAUGGAGUUUAUCAUG

This sample holds only a part of the variants without activity.

The variants in the data set derive from B1. Put plainly: polymerase ribozyme fitness, log enrichment relative to wild type (log ratio); higher = more active; in vitro selection for triplet polymerase activity. Put shortly:
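Frozen incubation at −7 °C formed the core of a single, triplicate in vitro selection round applied to PCR-built, transcribed mutant libraries of each subunit of a heterodimeric triplet polymerase ribozyme. Extended constructs were gel-excised, captured with streptavidin beads and amplified by RT-PCR, and input and output libraries were Illumina-sequenced with a filter of ≥10 input reads and ≥1 read per output. Fitness is the logarithm of genotype enrichment relative to wild-type enrichment, with inverse-variance-weighted replicate averaging, and the logarithm is base 2.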
Take GGAUCUUCUCGAUCUAACAAAAAAGACAAAUCUGCCACAAAGCUUGAGAGCAUCAUCGGAUGCAGAGGCGGCAGCUUUCGGUGGCGCGAUAGUGUCAACGUUCUCAACUAUGACACGCAAAACGCGUGCUCCGUUGAAUGGAAUUUAUCAUG [U55A C76U C93U C95U G143A]: the “polymerase ribozyme fitness (log ratio)” value is -2.72.

GGAUCUUCUCGAUCUAACAAAAAAGACAAAUCUGCCACAAAGCUUGAGAGCAUCAUCGGAUGCAGAGGCGGCAGCCUUCGGUGGCGCGAUAGGGCCAACGUUCUCAACUAUGACACGCAAAACGCGUGCUCCGUUGAAUGCAGUUUAUCAUG [U55A C93G G141C]: the “polymerase ribozyme fitness (log ratio)” value is -3.82.

In the case of GGAUCUUCUCGAUCUAACAAAAAAGACAAAUCUGCCACAAAGCUUGAGAGCAUCAUCAGAUGCAGAGGCGGCAGCCUUCGGUGGCGCGCUAGCGCCAACGUUCUCAACUAUGACACGCAUAACGCGUGCUCCGCUGAAUGGAGUUUAUCAUG [U55A G58A A89C A120U U134C], the “polymerase ribozyme fitness (log ratio)” value was determined as 0.161. Turning to GGAUCUUCUCGAUCUAACAAAAAAGACAAAUCUGCCACAAAGCUUGAGAGCAUCAUCCGAUGCAGAGGCGGCAGCCUUCGGUGGCGCGAUAGCGCCAACGUUCUCAACUAUGACACGCAAAACGCGUGCUCCGUUGAAUGGAGUUUAUCAUG [U55A G58C], the “polymerase ribozyme fitness (log ratio)” value is -0.661. The same measure for GGAUCUUCUCGAUCUAACAAAAAAGACAAAUCUGCCACAAAGCUUGAGAGCAUCAUCGGAUGCAGAGGCGGCAGCCUUAGGUGGCGCGAUAGCGCCAACGUUCUCAACUAUGACACGCAACACGCGUGCUCCGUUGAAUGGAGUUUAUCAUG [U55A C79A A121C]: not above -4.2.

As for GGAUCUUCUCGAUCUAACAAAAAAGACAAAUCUGCCACAAAGCUUGAGAGCAUCAUCGGAUGCAGAGGCGGCAGCCUUCGGUGGCGCGAUAGCGCCAACGUUCUGAACUAUGACACGCAAAACGCGUGCUCCGUUGAAUGUAGUUUAUCAUG [U55A C105G G141U], the “polymerase ribozyme fitness (log ratio)” value is -2.82. Next, GGAUCUUCUCGAUCUAACAAAAAAGACAAAUCUGCCACAAAGCUUGAGAGCAUCAUCGGAUGCAGAGGCGGCAGCCUUCGGUGGCGCGAUAGUGUUAACGUUCUCAACUAUGACACGCAAAACGCGUGCUCCGUUGAAUGGAGUUUAUCAUG [U55A C93U C95U C96U]: -3; GGAUCUUCUCGAUCUAACAAAAAAGACAAAUCUGCCACAAAGCUUGAGAGCAUCAUCGCAUGCAGAGGCGGCAGCCUUCGGUGGCGCGAUAGCUCCAACGUUCUCACCUAUGACACGCAAAACGCGUGCUCCGUUGAAUGGAGUUUAUCAUG [U55A G59C G94U A107C]: not above -4.2; GGAUCUUCUCGAUCUAACAAAAAAGACAAAUCUGCCACAAAGCUUGAGAGCAUCAUCGGAUGCAGAGGCGGCAGCCUUCGGUGGCGCGAUAGCGCCAACGUUCUCAACUAUGAUACGCAAAACGCGUGCUCCGUUGAAUGGAGUUUAUCAUG [U55A C114U]: -2.21.

Regarding GGAUCUUCUCGAUCUAACAAAAAAGACAAAUCUGCCACAAAGCUUGAGAGCAUCAUCGGAUGCAGAGGCGGCAGCCUUCGGUGGCGCGAUAGCGCCAACGUUCUCAACUAUGAAACGCAAAACGCGUGCUCCGUUGAAUGGAGUUUAUCAUG [U55A C114A], the “polymerase ribozyme fitness (log ratio)” value is -3.44. Next, GGAUCUUCUCGAUCUAACAAAAAAGACAAAUCUGCCACAAAGCUUGAGAGCAUCAUCGUGUGCAGAGGCGGCAGCCUUCGGUGGCGCGAUAGCACCAACGUUCUCAACUAUGACACGCAAAACGCGUGCUCCGUUGAAUGGAGUUUAUCAUG [U55A G59U A60G G94A]: -1.02.

Regarding GGAUCUUCUCGAUCUAACAAAAAAGACAAAUCUGCCACAAAGCUUGAGAGCAUCAUCGGAUGCAGAGGCGGCAGCUUUCGGUGGCGCGAUAGCGCCAACGUUCUCAACUAUGACACGCAACACGCGUGCUCCGUUGAAUGGAGUUUAUCAUG [U55A C76U A121C], the “polymerase ribozyme fitness (log ratio)” value was -0.181.

Consider GGAUCUUCUCGAUCUAACAAAAAAGACAAAUCUGCCACAAAGCUUGAGAGCAUCAUCGGAUGCAGAGGCGGCAGCCUUCGGUGGAGCGAUAGCGCCAACGUUCUCAACUAUGACACGCAAAACGCGUGCUCCCUUGAAUGGAGUUUAUCAUG [U55A C85A G133C], for which the “polymerase ribozyme fitness (log ratio)” value is -3.05.

Turning to GGAUCUUCUCGAUCUAACAAAAAAGACAAAUCUGCCACAAAGCUUGAGAGCAUCAUCGGAUGCAGAGGCGGCAGCCUUCGGUGGAGCGAUAGCGCCAACGUUCUUAACUAUGACACGCAAAACGCGUGCUCCGAUGAAUGGAGUUUAUCAUG [U55A C85A C105U U134A], the “polymerase ribozyme fitness (log ratio)” value is not above -4.2. The same measure for GGAUCUUCUCGAUCUAACAAAAAAGACAAAUCUGCCACAAAGCUUGAGAGCAUCAUCGGAUGCAGAGGCGGCAGCCUUCGGUGGCGUGACAGCGCCAACGUUCUCAACUAUGACACGCAAAUCGCGUGCUCCGUUGAAUGGAGUUUAUCAUG [U55A C87U U90C A122U]: not above -4.2. GGAUCUUCUCGAUCUAACAAAAAAGACAAAUCUGCCACAAAGCUUGAGAGCAUCAUCGAAUGCAGAGGCGGCAGCCUUCGGUGGCGCGAUAGCGCCAACGUUCUCAACUAUGACACGCAAAACGCGUGCUCCGUUGAAUGGAGUUUAUCAUG [U55A G59A]: the “polymerase ribozyme fitness (log ratio)” value is 1.69.

Consider GGAUCUUCUCGAUCUAACAAAAAAGACAAAUCUGCCACAAAGCUUGAGAGCAUCAUCGGAUGCAGAGGCGGCAGCCUUCGGUGGCGCGAUAGCGCCAACGUUCUCAACUAUGACACGCAAAACGCGUGAUCCGUUGAAUGGAGUUUAUCAUG [U55A C129A], for which the “polymerase ribozyme fitness (log ratio)” value is -2.11.

Consider GGAUCUUCUCGAUCUAACAAAAAAGACAAAUCUGCCACAAAGCUUGAGAGCAUCAUCGGAUGCAGAGGCGGCAGCCUUCGGUGGCGCGAUAGCGCGAACGUUCUCAACUAUGACUCGCGAAACGCGUGCUCCGUUGAAUGGAGUUUAUCAUG [U55A C96G A115U A119G], for which the “polymerase ribozyme fitness (log ratio)” value is -2.42.

For the variant GGAUCUUCUCGAUCUAACAAAAAAGACAAAUCUGCCACAAAGCUUGAGAGCAUCAUCGGAUGCAGAGGCGGCAGCCUUCGGUGGCGGGAUAGCGCCAACGUUCUCAACUAUGACACGCAAAACGCGUGCUCCGUUGAAUGGAGUUUAUGAUG [U55A C87G C149G], the “polymerase ribozyme fitness (log ratio)” value was not above -4.2.

The record behind these values is the RNAGym collection of RNA variant scans (doi:10.1073/pnas.2313332121).
